From patent US20110151450 come the findings set out here.

Numbering of substitutions follows the chain as printed. A value given as a limit tells only on which side of the number the result lay.

Experiment in all cases: cleavage_in_vitro
Data set [1] addresses T1, DpnII-HF R199A (Diplococcus pneumoniae) (UniProt P09357).
T1 sequence: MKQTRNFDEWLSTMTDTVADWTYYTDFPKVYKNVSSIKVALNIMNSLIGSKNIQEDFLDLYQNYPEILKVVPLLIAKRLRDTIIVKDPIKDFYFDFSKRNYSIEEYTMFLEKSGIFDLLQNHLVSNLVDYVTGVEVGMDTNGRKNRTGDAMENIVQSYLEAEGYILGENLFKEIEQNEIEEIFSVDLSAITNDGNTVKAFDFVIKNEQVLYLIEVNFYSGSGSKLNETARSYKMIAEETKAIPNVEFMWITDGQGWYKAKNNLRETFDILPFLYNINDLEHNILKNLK
As to conditions: NEB4, relative activity 100%.

For data set [2], the target named is T2, DpnII-WT (Diplococcus pneumoniae) (UniProt P09357).
T2 sequence: T1 sequence with A199R
As to conditions: NEB4, relative activity 25%.

For data set [3], the target named is T3, BanII-WT (Bacillus aneurinolyticus) (UniProt P19887).
T3 sequence: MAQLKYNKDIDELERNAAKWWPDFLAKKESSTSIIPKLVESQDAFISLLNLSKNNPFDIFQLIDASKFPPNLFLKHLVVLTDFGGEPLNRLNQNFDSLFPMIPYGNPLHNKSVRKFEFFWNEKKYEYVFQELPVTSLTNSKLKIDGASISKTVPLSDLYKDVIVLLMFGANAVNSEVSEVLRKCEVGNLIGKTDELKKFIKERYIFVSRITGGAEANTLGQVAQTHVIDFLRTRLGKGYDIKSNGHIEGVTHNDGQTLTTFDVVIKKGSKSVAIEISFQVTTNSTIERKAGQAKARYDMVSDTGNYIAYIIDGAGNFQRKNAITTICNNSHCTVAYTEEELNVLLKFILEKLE
As to conditions: NEB4, relative activity 100%.

In data set [4] the test system is T4, BclI-WT (Bacillus caldolyticus).
T4 sequence: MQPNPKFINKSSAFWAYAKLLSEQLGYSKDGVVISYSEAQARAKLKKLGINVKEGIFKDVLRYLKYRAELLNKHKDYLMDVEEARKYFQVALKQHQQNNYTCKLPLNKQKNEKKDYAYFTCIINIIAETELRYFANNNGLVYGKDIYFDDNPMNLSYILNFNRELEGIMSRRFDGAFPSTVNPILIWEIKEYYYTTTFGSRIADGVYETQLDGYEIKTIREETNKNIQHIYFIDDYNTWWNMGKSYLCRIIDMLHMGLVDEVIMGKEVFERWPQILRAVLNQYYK
As to conditions: NEB4, relative activity 100%.

For data set [5], the system named is BanII-HF R126A (Bacillus aneurinolyticus). The note with it: NEB4, relative activity 50%.
Data set [6] deals with T5, BclI-HF Y192F (Bacillus caldolyticus).
T5 sequence: T4 sequence with Y192F
As to conditions: NEB4, relative activity 100%.

A further data set has as its system T6, NruI-WT (Nocardia rubra).
T6 sequence: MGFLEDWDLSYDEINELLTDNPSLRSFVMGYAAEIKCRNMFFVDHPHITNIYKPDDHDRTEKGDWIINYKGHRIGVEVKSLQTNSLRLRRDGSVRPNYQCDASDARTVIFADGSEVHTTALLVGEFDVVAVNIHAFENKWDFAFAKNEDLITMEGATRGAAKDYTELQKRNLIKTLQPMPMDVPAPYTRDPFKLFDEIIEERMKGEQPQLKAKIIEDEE
The note with it: NEB4, relative activity 12.5%.

Data set [7] has as its system T7, NruI-HF P22A/R90A (Nocardia rubra).
T7 sequence: T6 sequence with P22A, R90A
As to conditions: NEB4, relative activity 100%.

Data set [8] concerns T8, MluI-WT (Micrococcus luteus).
T8 sequence: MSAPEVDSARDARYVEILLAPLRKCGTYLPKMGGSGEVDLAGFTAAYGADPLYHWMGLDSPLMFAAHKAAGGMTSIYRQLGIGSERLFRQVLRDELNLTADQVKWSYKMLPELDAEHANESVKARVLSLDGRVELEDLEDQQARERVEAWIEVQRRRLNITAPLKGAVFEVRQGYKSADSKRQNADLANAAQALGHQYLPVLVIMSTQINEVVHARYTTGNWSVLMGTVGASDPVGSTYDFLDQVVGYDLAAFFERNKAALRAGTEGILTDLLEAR
As to conditions: NEB4, relative activity 25%.

Data set [9] deals with T9, BglI-HF K225A (Bacillus globigii) (UniProt O68557).
T9 sequence: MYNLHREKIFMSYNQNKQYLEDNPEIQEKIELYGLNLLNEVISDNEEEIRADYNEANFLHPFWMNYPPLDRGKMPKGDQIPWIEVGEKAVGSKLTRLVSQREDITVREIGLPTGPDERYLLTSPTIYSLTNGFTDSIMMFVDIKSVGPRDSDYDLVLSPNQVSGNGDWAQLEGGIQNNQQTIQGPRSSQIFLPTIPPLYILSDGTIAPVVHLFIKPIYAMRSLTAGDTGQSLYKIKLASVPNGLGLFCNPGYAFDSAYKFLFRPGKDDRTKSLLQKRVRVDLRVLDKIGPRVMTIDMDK
As to conditions: NEB4, relative activity 100%.

Data set [10] deals with T10, MluI-HF E112A/R132A (Micrococcus luteus).
T10 sequence: T8 sequence with E112A, R132A
The note with it: NEB4, relative activity 100%.

Data set [11] has as its system T11, BstEII-WT (Bacillus stearothermophilus).
T11 sequence: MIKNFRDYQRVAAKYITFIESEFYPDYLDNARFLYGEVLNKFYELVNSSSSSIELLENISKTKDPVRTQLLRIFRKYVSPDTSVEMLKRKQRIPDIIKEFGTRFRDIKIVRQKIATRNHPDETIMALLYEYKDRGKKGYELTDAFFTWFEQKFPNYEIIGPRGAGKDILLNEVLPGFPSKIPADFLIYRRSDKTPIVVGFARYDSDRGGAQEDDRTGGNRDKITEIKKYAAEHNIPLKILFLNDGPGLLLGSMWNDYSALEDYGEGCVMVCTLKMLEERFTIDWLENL
The note with it: NEB4, relative activity 100%.

In data set [12] the target is T12, BanI-HF Q292A (Bacillus aneurinolyticus) (UniProt P19887).
T12 sequence: T3 sequence with Q292A
The note with it: NEB4, relative activity 100%.

Data set [13] concerns the target T13, BanI-WT (Bacillus aneurinolyticus) (UniProt P19887).
T13 sequence: T3 sequence
The note with it: NEB4, relative activity 100%.

Data set [14] concerns the target T14, BglI-WT (Bacillus globigii) (UniProt O68557).
T14 sequence: T9 sequence with A225K
As to conditions: NEB4, relative activity 50%.

In data set [15] the test system is T15, BstEII-HF R105A (Bacillus stearothermophilus).
T15 sequence: T11 sequence with R105A
The note with it: NEB4, relative activity 100%.

Another data set concerns T16, NspI-WT (Nostoc species).
T16 sequence: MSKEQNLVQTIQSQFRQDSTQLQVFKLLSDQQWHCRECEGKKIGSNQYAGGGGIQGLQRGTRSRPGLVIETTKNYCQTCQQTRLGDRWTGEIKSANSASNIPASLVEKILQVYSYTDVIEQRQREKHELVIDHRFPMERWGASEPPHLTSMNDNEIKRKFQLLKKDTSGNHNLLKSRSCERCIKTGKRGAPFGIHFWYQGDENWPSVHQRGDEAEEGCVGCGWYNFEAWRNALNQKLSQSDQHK
As to conditions: NEB4, BSA, relative activity 50%.

In data set [16] the test system is T17, NspI-HF S97A (Nostoc species).
T17 sequence: T16 sequence with S97A
The note with it: NEB4, BSA, relative activity 100%.

Turning to dam- lambda DNA, the activity (fidelity index) in data set [1] was 8000; in data set [2] it was 1; in data set [3], 16; in data set [4], 32; in data set [5], greater than 2000; in data set [6], greater than 2000. The activity (fidelity index) is 32 with NruI-WT (Nocardia rubra) and greater than 16000 in data set [7].

As to lambda DNA, the activity (fidelity index) in data set [8] is 32; in data set [9] it was greater than 8000; in [10] it was greater than 32000; in data set [11], 4; in [12] it was greater than 2000; in data set [13] it was 16. In addition, the activity (fidelity index) is 32 in data set [14] and greater than 2000 in data set [15].

As to pUC19 plasmid, the activity (fidelity index) came out at 32 in the data set on NspI-WT (Nostoc species) and 500 in data set [16].
